Results from publication PMC2361611.
Read-outs that look alike come from different tables or passages of the source.

What was measured:
polyubiquitin [1] = target: polyubiquitin (UniProt P0CG48); assay: ELISA; 0.50 ug polyubiquitin dried per well (Nunc MaxiSorp), blocked with 1% BSA; angiocidin or mutants at various concentrations in TBST pH 7.4, 1.5 h, room temperature; detected with biotinylated rabbit antiangiocidin IgG and streptavidin-HRP; fitted to a rectangular hyperbola
polyubiquitin [2] = target: polyubiquitin (UniProt P0CG48); assay: as above; remark: listed apart in the source
polyubiquitin [3] = target: polyubiquitin (UniProt P0CG48)

| Kd (polyubiquitin [1]) [nM] | Kd (polyubiquitin [2]) [nM] | Substance | endothelial cell apoptotic activity: viability of HUVE cells plated overnight on wells coated with 1 ug protein, Alamar blue assay (fold lower than angiocidin) (polyubiquitin [3]) |
| --- | --- | --- | --- |
| 0.041 |  | angiocidin (his-tagged recombinant, full length) (natural protein) |  |
| 15 | 1.52 | angiocidin mutant M-2 (L216ALAL220 substituted with alanines) (natural protein) | 2 |
